According to the DeepSol protein solubility set:

Assay: soluble on expression in E. coli; label from the status in PepcDB or PDB records
With “LSKLTVVETPLEVNLPAGDNRVAVRVTPVSLNAGSLKSDAGARFGGGTSGAAGSQSDKGVGLAVAFERPEEGLKADIGTTPMGFKYTTVAGGASVDRPLGNNPDLRYGLNVSRRPVTDSVTSFAGSTDERSGLSWGGVTANGGRGQLSYDDQTIGGYGYGSWHKLVGNNVKSNTRGEVGGGVYWYLRNAEDSKLTAGLSLMGMSYDNDQSYFTYGHGGYFSPQSFYAIGVPVMWAQRTERFSYQVKSSVGVQHFKQDGAEFFPDDSTLQAASAQRYTGQSKTGIGYNLSAAGEYKLDSSLFMGASLGLDNARDYRQFSGALYLRYMFEDI” the “soluble on expression in E. coli” value was “not soluble”. For “MIAHSVDDPFYYLHNFRQVVLWVEQRYQDLLDDQELAFIRAFSQLQAPAQALMVRMVMRKGELFRSDRLDYAEIGDTALALQPLLALGWVREPEQLDLEQLFALLRKEELARCFARQLNRPRAAKHELLAQLQPLALAARSLVEWFPDSDVRILQWCLQPLCDRIRLLFFGNLYQDWSDFVLADLGLLRYEQVPFSPDSRALQQRDDVDLAMALHHCAERLEQGGDPLPILATLQGLHSSNPWLARRHARLQFAVGQQCERLGEWDLATAVYAQCNHPQARIRQVRVLERSEQWHQAHARALQLAAAPANALEEQALQRMLPRLARKLGGPPQRRQRTTPLELIELELPRGDAALGVEEAVRQHLMQEGGQAHYVENTLFNSLFGLLCWEAIFAPVPGAFFNPFQAAPQDLHDSDFQQRRSALFERCLGRLDEGSHRQAILDCYVAKQGLQSPFVSWSMLSEELLEQALACLPAAALKQCFLRLLQDIRSNRAGMPDLIQFWPEQGRYRMVEVKGPGDRLQDNQLRWLAFCRQHGLPVAVCHVRWSET”, the “soluble on expression in E. coli” value was “not soluble”. In the case of “MSLNKLCMYLERPELYKQSEINFWDDEYISKQLLKAHLDTNFEGASRNFNFIEDSVNWIVTVANPANYPKLLDLGCGPGLYAEKFAQKGYKVTGIDFSKRSINYAQNRNKETNLNINYLFQSYLNMNYNEEFDLATLIYCDYGALSTENRRLLMEKIYDSLKPGGKLILDVFTINKYNNFEEIKYWEINEDGGFWSNEKYMCLQDNCKYNDYNTLEQTLVITEKDENVFYVWNHYFSKESFLLEVENIGFKSVEFFSNVKGEAYSDDSMTMGLVLQKEGHHHHHH”, the “soluble on expression in E. coli” value is reported as “soluble”. With “DRKAVLNAAEQHFSGWKELYLCLVDRDTQGGLVVETGGPLTFSEAERAAADWAWQHDQPAGSGTGTLPSGRWWWWPITAEEGPLALLGVCAREGQSFTDQHRRLLAALTQPLAQALARAQLAQELEAARLHGETEQLRSALLASVSHDLRTP” the “soluble on expression in E. coli” value was “not soluble”. In the case of “MGSDKIHHHHHHMLEVKKLTVCYNDFLALNEISLKIQEGALTGIFGPNGAGKSTLLKAMLNIIPHQGEVSINNEDINKKLVKIAYVEQKADIDFTFPIKVKECVSMGTYAGMKVFQRIKNAEWQKVSKALEKVDMGKYSNHQIGELSGGQFQRVLLARCLAQNADFIFLDEPFVGIDLVSERIIMDTLKELKHQGKTVLIVHHDLSKVKKYFDNIILLNRNLIAHGSVESVFNEENLKKAYGDTIFIGEGE”, the “soluble on expression in E. coli” value is reported as “not soluble”. With “MHHHHHHSSGVDLGTENLYFQSMTLESMNPQVKAVEYAVRGPIVLKAGEIELELQRGIKKPFTEVIRANIGDAQAMGQQPITFLRQVMALCTYPNLLDSPSFPEDAKKRARRILQACGGNSLGSYSASQGVNCIREDVAAYITRRDGGVPADPDNIYLTTGASDGISTILKILVSGGGKSRTGVMIPIPQYPLYSAVISELDAIQVNYYLDEENCWALNVNELRRAVQEAKDHCDPKVLCIINPGNPTGQVQSRKCIEDVIHFAWEEKLFLLADEVYQDNVYSPDCRFHSFKKVLYEMGPEYSSNVELASFHSTSKGYMGECGYRGGYMEVINLHPEIKGQLVKLLSVRLCPPVSGQAAMDIVVNPPVAGEESFEQFSREKESVLGNLAKKAKLTEDLFNQVPGIHCNPLQGAMYAFPRIFIPAKAVEAAQAHQMAPDMFYCMKLLEETGICVVPGSGFGQREGTYHFRMTILPPVEKLKTVLQKVKDFHINFLEKYA” the “soluble on expression in E. coli” value was “soluble”. In the case of “MGSDKIHHHHHHMSLFHLIAPSGYCIKQHAALRGIQRLTDAGHQVNNVEVIARRCERFAGTETERLEDLNSLARLTTPNTIVLAVRGGYGASRLLADIDWQALVARQQHDPLLICGHSDFTAIQCGLLAHGNVITFSGPMLVANFGADELNAFTEHHFWLALRNETFTIEWQGEGPTCRAEGTLWGGNLAMLISLIGTPWMPKIENGILVLEDINEHPFRVERMLLQLYHAGILPRQKAIILGSFSGSTPNDYDAGYNLESVYAFLRSRLSIPLITGLDFGHEQRTVTLPLGAHAILNNTREGTQLTISGHPVLKM”, the “soluble on expression in E. coli” value is reported as “not soluble”. With “MGSDKIHHHHHHMAKEKKSRDTQKKIFVLDTSVIIYDHNAVKNFEEHDLAIPITVLEELDNFKKGNDIKNFEAREFTRFLDELAADSASLQDWIQLEGRDKGKLKVIMNTHGTKETDAEKIFDDRKNDHKILNAAISVQAENPDKKVILVSKDINLRLKAKSLNIPSEDYNTGKVKDIDLLYTGHTTIENVAPEKINELYEKGYCDIDAIPEQDVSKNHYYILKSVKSSALAYYNPVDKRLEHVGKTPAYGIKPRNAEQAFAIHAVLDPHIKLVSIQGVAGTGKTLIALAATLEQRKDFKQIFLARPIVPLSNKDIGYLPGDIKSKLNPYMEPLFDNLKFIQNQFNETDQDYQRITDMVNKEKLVITPLAYIRGRSLSNIVFIVDEAQNLTPHEVKTIISRAGENCKIIFTGDIFQIDTPYLDSESNGLSYLIDRLKNQDLYAHITLEKGERSELANLANELL” the “soluble on expression in E. coli” value was “not soluble”. For “MMRGSHHHHHTDPISYIIRKADSVNKALDSAVPLREPLKIHEAMRYSLLAGGKRVRPVLCIAACELVGGEESLAMPAACAVEMIHTMSLIHDDLPCMDNDDLRRGKPTNHKVYGEDVAVLAGDALLSFAFEHLASATSSEVSPARVVRAVGELAKAIGTEGLVAGQVVDISSEGLDLNNVGLEHLKFIHLHKTAALLEASAVLGGIIGGGSDEEIERLRKFARCIGLLFQVVDDILDVTKSSKLTYPKLMGLEKSREFAEKLNTEARDQLLGFDSDKVAPLLALANYIANRQN”, the “soluble on expression in E. coli” value was “soluble”. In the case of “MGSDKIHHHHHHMNAPDTSLAGASTASTASYDSAADGYNFAYLDEQTKRMLRRALLKAVAVPGYQVPFASREMPLPFGWGTGGIQVTAAIIGRKDTLKVIDQGSDETTNAVNIRRFFARTTGVATTRRTVDATIIQTRHRIPETPLTERQILVYQVPMPEPLFRLEPRVAECRKLHALADYGLISVKLYEDIVHHGSIATTYDYPVIVNHRYLASPSPIPKFDNPKMHMNPALQLFGAGRERRIHAIPPYTPVRSLDFDDHPFEVQKWHHACALCGSTESFLDEMIVDDAGKRMFVCSDSDYCHERRGDADFDPPSRDAGKGEPA”, the “soluble on expression in E. coli” value is reported as “not soluble”. In the case of “MAHHHHHHMNFPDSRVLSDEFPRRKYKPSSATRLEDIVLKGLHYGQRKLLLSEIEFLSAYLEGRQAGAKPTLVVYAGAANGSHLPFLFQLFEAVKFVLIDPAPFCDAVREISLNKQGPILDLVQGFCTDELCKQLSSSYGSTYDILLVSDIRSGVPEKQSNRENTLMIMRDNDMQRSWCWTLKAEAALLKFHPPYPPCRDRNSRHYDEADDTPESIEYLDGVRLFGVWAPKSSSELRLCVQGPFLQGTSFPMRRYDCTTHEEQCYFYNTDNRYTRDCAAESGILERYLQLFPSAPYSDPTALSMTISNFLGFPLFLPLDSSFSESDARWVTLLYSTRIPTCLELFTTLRGRVTHTVMKQLAEEWQSATTVPKGVSIDSVELTSEFWKAVCAGDLTEAYSFPNIRWRFANLLISRRRKRSASDRAP”, the “soluble on expression in E. coli” value is reported as “not soluble”. In the case of “MGHHHHHHSHMSERSVSKRTEQKRWYTVQAPEQFDREVLGKTPAEEPDKVLGRTIETTLGELTNDASENNTKLTFKINEVASDSAYTEFIRHELTRDYLRSLVRRGSSKVEAYITVLTTDDYRVQIQPVAVTTKKADASQEKAIRRTMIDLVRETAEDHTFEQLIDSVVEGRLSSAIYGEAKDIYPLRRVEIKKTTLEARPEEVAAEEETAVDVDEEDVDVEA”, the “soluble on expression in E. coli” value is reported as “soluble”. For “MSLQRGAGQYFAGKRCFVTGAASGIGRATALRLAAQGAELYLTDRDRDGLAQTVCDARALGAQVPEHRVLDVSDYQDVAAFAADIHARHPSMDVVLNIAGVSAWGTVDQLTHDQWSRMVAINLMGPIHVIETLVPPMVAAGRGGHLVNVSSAAGLVGLPWHAAYSASKYGLRGLSEVLRFDLARHGIGVSVVVPGAVKTPLVNTVEIAGVDRDDPRVNRWVERFSGHAVTPEKAADKILAGVTRNRYLVYTSADIRALYAFKRYAWWPYTLVMRRVNVFFTRALRPGEGHHHHHH”, the “soluble on expression in E. coli” value was “soluble”. With “MSLRALFDALTPKQARIAAILKREGGLQLTITCREYYHLRDMLEQYKVDYICIGRYGETTEEKLVEGLKRQLQMVEIMRGLDGVVSFPSPDAVRTAFGLGKKSVVLNDTPHAYHANSLTIPLSDALIAPSAIPQDAWRRYCPKKVMTFDGVFEYMWTSRHTPNLESVRKLGLEPGSYVVFRPEEAKAAYYQWNNVQLRAKLVELVKEMGYVVVNIPRYPDQVIEGAINLIKAVDHLDLAYYAAAVITGGLTMSTEAALLGTPAVSYFPGDVYIDRYLERAGAPLLRCSSMDECIHVVKKALSMGRAPPPKMEDPLKAIVAAVQEIFGGEGHHHHHH” the “soluble on expression in E. coli” value was “soluble”. In the case of “MGSDKIHHHHHHMLFLKELESNLTVSKLMELCFEHPSYKDYCSVISTKKGEVLESLSPAGTKVYFVLSGIYGMIVEEDAEMEEESYKESIVRFLQKGDSFGLYHLFYDEWSPHVSMQSLGHGEVMEVDSNFLFSIFDKKDENNFFMIKVMAEELREAHTFAKLSFLKKEERIRKAILKCAQTLGTFSDNGILLPREITQEVLARYTNTSREYVAHTVMHLIKEDIIRNRPKPLLVMDKTRL”, the “soluble on expression in E. coli” value is reported as “not soluble”. With “MKKIHYTDNYLLKPYHPVTIHVAGAGGTGSQVITNLARMNVALQALGHPGLHVTVFDPDIITEANIGRQLFSEMELGQGKATAAVTRVNRFFGTTWTAENCRYPVRKTQENGDDRTKPANIIITCTDNTRSRLELWRFLKKYRETSVNNERAVYYWMDFGNAQTTGQVFIGTVRNKIRQPASKEFMPVPGMNVITEEVNYSTIEEKDSEPSCSLAEALERQDLYINSILAQVGCDILWRMFKEGRTLYRGAYINLDTLRVNPIPV” the “soluble on expression in E. coli” value was “not soluble”. For “MGSDKIHHHHHHMDTLNQIDISIIIPIYNVEKYLTVCIDSLKNQGGLRMEIILVNDGSTDLSGEIADEYAKKEERIKVIHQENGGASAARNVGLDIATEEYIAFLDSDDWIKDESLSLLYDEAVKHHADVVMGNMWLCHQDGSMDKPFKCISNGSIKELLSGKESFIELVKTCFYLPMPFKYIYNRKYLHKIQARFEEGIMHEDELWCPIVLCQAERMVITNIEFYYYRQNEESVMHTTSLARRLKSLFQVTEGLIKFSDQFVSSKTSVDLRSWWYVNILRLYSKAFTLLPNIKDSSYIVHKHYLDRFWRDCGQMIPESIQRCRNYYYKAEAGLKEYTDWRVSDWVAGVDCQIKAGKKVMLVFNTINGEDLQLKIEDVPVDWVITTDRKYFQQATIVVFHLPTLHYELENDQDKLEGQTWVSWHLESEKDDPGINDPEISELFDLLISDPQDSEGEQHPLLRLCRNYVNNG”, the “soluble on expression in E. coli” value was “not soluble”. With “MGSDKIHHHHHHMASFQSFGIPGQLEVIKKALDHVRVGVVITDPALEDNPIVYVNQGFVQMTGYETEEILGKNCRFLQGKHTDPAEVDNIRTALQNKEPVTVQIQNYKKDGTMFWNELNIDPMEIEDKTYFVGIQNDITKQKEYEKLLEDSLTEITALSTPIVPIRNGISALPLVGNLTEERFNSIVCTLTNILSTSKDDYLIIDLSGLAQVNEQTADQIFKLSHLLKLTGTELIITGIKPELAMKMNKLDANFSSLKTYSNVKDAVKVLPIM” the “soluble on expression in E. coli” value was “not soluble”. For “MAIETILVINKSGGLIYQRNFTNDEQKLNSNEYLILASTLHGVFAIASQLTPKALQLTQQTNIENTIPYIPYVGMSSNRSDTRNGGGNNNKHTNNEKLGSFKGDDFFKEPFTNWNKSGLRQLCTDQFTMFIYQTLTGLKFVAISSSVMPQRQPTIATTDKPDRPKSTSNLAIQIADNFLRKVYCLYSDYVMKDPSYSMEMPIRSNLFDEKVKKMVENLQ”, the “soluble on expression in E. coli” value was “soluble”.
